The nature of this data set: self-splicing fitness, log relative to wild type (ln ratio); higher = more splicing; Tetrahymena group I intron in knt gene, E. coli kanamycin selection, DiMSum; sequences stand for … in CUCUCU…GGAGGGAAAAGUUAUCAGGCAUGCACCUGGUAGCUAGUCUUUAAACCAAUAGAUUGCAUCGGUUUAAAAGGCAAGACCGUCAAAUUGCGGGAAAGGGGUCAACAGCCGUUCAGUACCAAGUCUCAGGGGAAACUUUGAGAUGGCCUUGCAAAGGGUAUGGUAAUAAGCUGACGGACAUGGUCCUAACCACGCAGCCAAGUCCUAAGUCAACAGAUCUUCUGUUGAUAUGGAUGCAGUUCACAGACUAAAUGUCGGUCGGGGAAGAUGUAUUCUUCUCAUAAGAUAUAGUCGGACCUCUCCUUAAUGGGAGCUAGCGGAUGAAGUGAUGCAACACUGGAGCCGCUGGGAACUAAUUUGUAUGCGAAAGUAUAUUGAUUAGUUUUGGAGUACUCGUGGUCG
The method, boiled down:
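Fitness was computed with DiMSum as the error-weighted combination of replicate fold changes, kanamycin versus none, each normalised to wild type. The library randomised all eight intron nucleotides of the P1ex region, with the intron placed in the knt kanamycin-resistance gene on pET-22b(+) in E. coli BL21(DE3). Six replicate transformations were grown overnight at 37°C or 30°C on LB agar with or without 25 μg/mL kanamycin, plus 100 μg/mL carbenicillin, 50 μM IPTG and 0.2% rhamnose. Pooled colonies were amplicon-sequenced on an Illumina HiSeq 2500.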

± gives the uncertainty stated by the source.

Consider AUCUAGCAAUAUUACGGUCA, for which the “self-splicing fitness (ln)” value is -1.31 ± 0.15 (30 °C) and -0.841 ± 0.14 (37 °C). The corresponding values for AUAGAGCAAUAUUACGCCAA are -2.44 ± 0.24 and -0.839 ± 0.3.

GGUUAGCAAUAUUACGUUAU: the “self-splicing fitness (ln)” value is -1.61 ± 0.1 (30 °C) and -0.954 ± 0.1 (37 °C).

Consider GCCUAGCAAUAUUACGUACC, for which the “self-splicing fitness (ln)” value is, setting by setting: (30 °C) -1.18 ± 0.099; (37 °C) -0.205 ± 0.12. The corresponding values for CAGAAGCAAUAUUACGGGGA are -4.87 ± 0.36 and -1.61 ± 0.11. On to CAGCAGCAAUAUUACGAAAC, for which the “self-splicing fitness (ln)” value (30 °C) was -3.65 ± 0.23. Consider UAGCAGCAAUAUUACGGGUA, for which the “self-splicing fitness (ln)” value is -0.507 ± 0.052 (30 °C) and 0.13 ± 0.057 (37 °C). The corresponding values for CCUGAGCAAUAUUACGCAAA are -2.19 ± 0.26 and -2.42 ± 0.28.

As to GUAUAGCAAUAUUACGGGCG, the “self-splicing fitness (ln)” value by setting is: (30 °C) -2.27 ± 0.17; (37 °C) -0.207 ± 0.18. ACCAAGCAAUAUUACGCCGC: the “self-splicing fitness (ln)” value is, setting by setting: (30 °C) -3.04 ± 0.24; (37 °C) -0.837 ± 0.18.

On to UAUAAGCAAUAUUACGACUU, for which the “self-splicing fitness (ln)” value (30 °C) was -0.386 ± 0.13 and the “self-splicing fitness (ln)” value (37 °C) is -0.681 ± 0.13. Taken in the same sequence, the figures for GGUCAGCAAUAUUACGAAGA were -1.72 ± 0.18 and -0.837 ± 0.19. Taken in the same sequence, the figures for CGUAAGCAAUAUUACGUUAG were -1.34 ± 0.072 and -0.964 ± 0.081. For the sequence GUCAAGCAAUAUUACGAGCG, the “self-splicing fitness (ln)” value is, setting by setting: (30 °C) -2.72 ± 0.16; (37 °C) -1.2 ± 0.18.

Consider CUCAAGCAAUAUUACGGAAA, for which the “self-splicing fitness (ln)” value is, setting by setting: (30 °C) -3.21 ± 0.28; (37 °C) -2.6 ± 0.25. UAUGAGCAAUAUUACGUGUU: the “self-splicing fitness (ln)” value runs as follows: (30 °C) -3.34 ± 0.17; (37 °C) -2.99 ± 0.18. Taken in the same sequence, the figures for AUUGAGCAAUAUUACGCCCU were -2.51 ± 0.24 and -0.951 ± 0.21. Taken in the same sequence, the figures for AUCUAGCAAUAUUACGCUGC were -2.92 ± 0.24 and -1.66 ± 0.18. Taken in the same sequence, the figures for GCGAAGCAAUAUUACGGCGC were -2.48 ± 0.29 and -1.01 ± 0.43. For the sequence UCAUAGCAAUAUUACGGGUU, the “self-splicing fitness (ln)” value is, setting by setting: (30 °C) -4.83 ± 0.36; (37 °C) -3.34 ± 0.25. Taken in the same sequence, the figures for UGCGAGCAAUAUUACGGUAG were -3.36 ± 0.24 and -3.01 ± 0.32. As to AGAGAGCAAUAUUACGGGUC, the “self-splicing fitness (ln)” value (37 °C) was -3.11 ± 0.48. UCGGAGCAAUAUUACGGUUG: the “self-splicing fitness (ln)” value is -3.25 ± 0.24 (30 °C) and -2.48 ± 0.33 (37 °C). With ACACAGCAAUAUUACGGAAG, the “self-splicing fitness (ln)” value (30 °C) is -3.07 ± 0.14 and the “self-splicing fitness (ln)” value (37 °C) was -1.12 ± 0.11. Taken in the same sequence, the figures for CGAGAGCAAUAUUACGCCAA were -1.49 ± 0.2 and -1.99 ± 0.38.

Consider CCGCAGCAAUAUUACGCGAA, for which the “self-splicing fitness (ln)” value runs as follows: (30 °C) -2.87 ± 0.18; (37 °C) -2.5 ± 0.18. The corresponding values for AGGUAGCAAUAUUACGAAAC are -3.37 ± 0.035 and -1.85 ± 0.042.

As to UCAAAGCAAUAUUACGCACA, the “self-splicing fitness (ln)” value is -0.843 ± 0.079 (30 °C) and -0.191 ± 0.082 (37 °C). Taken in the same sequence, the figures for UUGGAGCAAUAUUACGGUAA were -1.27 ± 0.26 and -1.01 ± 0.27. Taken in the same sequence, the figures for CAAUAGCAAUAUUACGUGGG were -3.7 ± 0.15 and -3.49 ± 0.21.

AAAUAGCAAUAUUACGUCUA: the “self-splicing fitness (ln)” value by setting is: (30 °C) -0.412 ± 0.077; (37 °C) 0.205 ± 0.084. For UUGCAGCAAUAUUACGAGAA, the “self-splicing fitness (ln)” value (37 °C) was -1.47 ± 0.34. GUGUAGCAAUAUUACGCUCA: the “self-splicing fitness (ln)” value reads like this: (30 °C) -0.291 ± 0.21; (37 °C) 0.47 ± 0.33. GGGCAGCAAUAUUACGUCAC: the “self-splicing fitness (ln)” value (37 °C) is -1.18 ± 0.42. Take UUCAAGCAAUAUUACGUUCC: the “self-splicing fitness (ln)” value (37 °C) is -1.79 ± 0.34. As to GAAGAGCAAUAUUACGAGCC, the “self-splicing fitness (ln)” value (30 °C) is -1.61 ± 0.24 and the “self-splicing fitness (ln)” value (37 °C) was -0.252 ± 0.36. Taken in the same sequence, the figures for AGACAGCAAUAUUACGGAGU were -4.06 ± 0.16 and -2.28 ± 0.13.

On to AUACAGCAAUAUUACGACCA, for which the “self-splicing fitness (ln)” value runs as follows: (30 °C) -0.419 ± 0.15; (37 °C) -0.298 ± 0.17. For GUACAGCAAUAUUACGUUGA, the “self-splicing fitness (ln)” value is -2.77 ± 0.12 (30 °C) and -1.59 ± 0.095 (37 °C). Take UACCAGCAAUAUUACGAGAC: the “self-splicing fitness (ln)” value was -2.38 ± 0.18 (30 °C) and -1.54 ± 0.2 (37 °C). On to UGUAAGCAAUAUUACGGUAU, for which the “self-splicing fitness (ln)” value (37 °C) was -1.68 ± 0.21. For CCAAAGCAAUAUUACGUACG, the “self-splicing fitness (ln)” value (30 °C) is -0.00591 ± 0.081 and the “self-splicing fitness (ln)” value (37 °C) came to 0.0861 ± 0.084. With AAUCAGCAAUAUUACGACGU, the “self-splicing fitness (ln)” value was determined as 0.0618 ± 0.056 (30 °C) and 0.666 ± 0.07 (37 °C). On to GGUUAGCAAUAUUACGUCAC, for which, for the setting “37 °C”, the “self-splicing fitness (ln)” value was -1.82 ± 0.23. Regarding CUUGAGCAAUAUUACGAUGG, the “self-splicing fitness (ln)” value was -2.94 ± 0.2 (30 °C) and -2.13 ± 0.23 (37 °C).

With AUCCAGCAAUAUUACGGGCA, the “self-splicing fitness (ln)” value reads like this: (30 °C) -0.0628 ± 0.073; (37 °C) -0.507 ± 0.083. With AGCCAGCAAUAUUACGGAAA, the “self-splicing fitness (ln)” value was -1.88 ± 0.3 (30 °C) and -1.3 ± 0.25 (37 °C). The corresponding values for CUUCAGCAAUAUUACGGUGA are -3.2 ± 0.21 and -2.67 ± 0.18. Turning to CUUAAGCAAUAUUACGGAAA, the “self-splicing fitness (ln)” value runs as follows: (30 °C) -3.23 ± 0.38; (37 °C) -2.1 ± 0.28.

On to UAGAAGCAAUAUUACGCAGU, for which the “self-splicing fitness (ln)” value was -4.08 ± 0.29 (30 °C) and -2.07 ± 0.25 (37 °C). The corresponding values for GAGAAGCAAUAUUACGUCAC are -3.6 ± 0.29 and -0.67 ± 0.24. UGCCAGCAAUAUUACGGCCA: the “self-splicing fitness (ln)” value (30 °C) is -0.44 ± 0.076 and the “self-splicing fitness (ln)” value (37 °C) was -0.0136 ± 0.086. Take UGAGAGCAAUAUUACGAAAU: the “self-splicing fitness (ln)” value is, setting by setting: (30 °C) -2.66 ± 0.22; (37 °C) -1.75 ± 0.32. Regarding AAGAAGCAAUAUUACGACAA, the “self-splicing fitness (ln)” value reads like this: (30 °C) -0.745 ± 0.098; (37 °C) -0.224 ± 0.12. Taken in the same sequence, the figures for CCUGAGCAAUAUUACGUCAG were -2.64 ± 0.099 and -2.19 ± 0.099. The corresponding values for UUAGAGCAAUAUUACGCUAG are -0.574 ± 0.12 and 0.349 ± 0.15. The corresponding values for CGAAAGCAAUAUUACGAGCG are -0.778 ± 0.098 and -0.277 ± 0.11. With UAUUAGCAAUAUUACGCGUA, the “self-splicing fitness (ln)” value runs as follows: (30 °C) -1.95 ± 0.16; (37 °C) -0.462 ± 0.12. For AGAAAGCAAUAUUACGGAUC, the “self-splicing fitness (ln)” value by setting is: (30 °C) -1.53 ± 0.13; (37 °C) -0.656 ± 0.17. The corresponding values for ACUUAGCAAUAUUACGAACU are -0.706 ± 0.12 and -0.193 ± 0.14. As to CCUCAGCAAUAUUACGCUGG, the “self-splicing fitness (ln)” value runs as follows: (30 °C) -2.55 ± 0.12; (37 °C) -2.41 ± 0.17.

Turning to AUGAAGCAAUAUUACGGCCC, the “self-splicing fitness (ln)” value was -0.0924 ± 0.12 (30 °C) and 0.156 ± 0.17 (37 °C). The corresponding values for GACUAGCAAUAUUACGAUCU are -0.896 ± 0.087 and -1.38 ± 0.096. The corresponding values for UGCUAGCAAUAUUACGGGCG are -1.45 ± 0.1 and -1.82 ± 0.11. As to CACAAGCAAUAUUACGGGCU, the “self-splicing fitness (ln)” value (30 °C) was -4.15 ± 0.24 and the “self-splicing fitness (ln)” value (37 °C) is -2.29 ± 0.17. The corresponding values for AGCUAGCAAUAUUACGAUGC are -2.47 ± 0.12 and -2.12 ± 0.17.

For the sequence UGCUAGCAAUAUUACGGGGU, the “self-splicing fitness (ln)” value is -2.82 ± 0.21 (30 °C) and -2.09 ± 0.21 (37 °C). Taken in the same sequence, the figures for GCCCAGCAAUAUUACGAGGU were -3.81 ± 0.2 and -3.07 ± 0.22. Taken in the same sequence, the figures for GCCCAGCAAUAUUACGUUCC were -1.28 ± 0.096 and -0.603 ± 0.14. For GCAUAGCAAUAUUACGCGGC, the “self-splicing fitness (ln)” value was -3.32 ± 0.33 (30 °C) and -2.38 ± 0.34 (37 °C). Turning to UAAGAGCAAUAUUACGCCGC, where the note is “30 °C”, the “self-splicing fitness (ln)” value is -2.81 ± 0.41. In the case of UGGAAGCAAUAUUACGCUAA, the “self-splicing fitness (ln)” value is -1.31 ± 0.32 (30 °C) and -0.826 ± 0.38 (37 °C). Taken in the same sequence, the figures for UAUUAGCAAUAUUACGGAAU were -4.02 ± 0.33 and -0.66 ± 0.19. Taken in the same sequence, the figures for GUGGAGCAAUAUUACGUAGU were -2.93 ± 0.24 and -0.993 ± 0.27. As for CAUUAGCAAUAUUACGUGUC, the “self-splicing fitness (ln)” value (37 °C) is -2.18 ± 0.24.

As for AGCUAGCAAUAUUACGGGCC, the “self-splicing fitness (ln)” value (30 °C) is -3.59 ± 0.26 and the “self-splicing fitness (ln)” value (37 °C) is -2.51 ± 0.24. Taken in the same sequence, the figures for GCAGAGCAAUAUUACGCGGG were -3.58 ± 0.39 and -2.24 ± 0.28. For AUGGAGCAAUAUUACGAUCA, the “self-splicing fitness (ln)” value (37 °C) is -1.09 ± 0.25.

Source of the values: the supplement of paper PMC7877785.
